Assay results published in patent US20210253725A1 (BIONTECH, published 2021).

Legend:
[1] = target: CD134 expressed on the cell surface of HT1080_OX40 cells (human) (UniProt P43489); experiment: cell-based or functional assay
[2] = target: CD134 expressed on the cell surface of HT1080_OX40 cells (human) (UniProt P43489); experiment: HT1080_OX40 cells, imaging
Wherever Functional assay Cross-linked by F(ab′)2 fragment IL-8 is given: test concentration or dose not given here.
Wherever Functional assay IL-8 is given: test concentration or dose not given here.

CD134 expressed on the cell surface of HT1080_OX40 cells (human), sequence (P43489 29-277): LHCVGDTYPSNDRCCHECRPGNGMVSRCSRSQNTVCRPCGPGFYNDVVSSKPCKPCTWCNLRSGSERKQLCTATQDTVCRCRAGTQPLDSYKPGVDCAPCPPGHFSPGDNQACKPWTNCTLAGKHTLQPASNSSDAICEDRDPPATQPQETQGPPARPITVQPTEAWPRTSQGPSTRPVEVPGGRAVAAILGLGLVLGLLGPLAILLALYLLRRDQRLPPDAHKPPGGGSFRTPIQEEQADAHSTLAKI

EC 50 (IL-8 release, cross-linked) [1]: 0.966 µg/mL | Functional assay Cross-linked by F(ab′)2 fragment IL-8 [1]: 2.39 abs. corr. | Functional assay IL-8 [1]: 0.032 abs. corr. | Cellular binding assay [RFU] [2]: 40 RFU
B1: P018.S.05.A.G03 (antibody, V domains shown)
VH: QEQLVESGGGLVQPEGSLTVTCTASGFSFSNSYWMCWVRQAPGKGLEWIACIYLGSAGTTHHATWAKGRFTISKTTSTTVTLQMTSLTAADTATYFCARAGHDYWGAYHTLWGPGTLVTVSS
VL: DVVMTQTPASVSEPVGGSVTIKCQASQNIDNTLAWYQQKAGQPPKLLIYHASTLASGVPSRFRGSGSGTDFTLTISDLESADAATYYCQCPYYGSTYVYSFGGGTEVVVK
